How the values were obtained:
[1] = target: human insulin receptor type B (IR(B)) (human) (UniProt P06213); assay: cell-based or functional assay
[2] = target: T1, Human macrophage mannose receptor 1 (MRC1) (human) (UniProt P22897); assay: competition with Eu-mannosylated-BSA on captured human MRC1, DELFIA
T1 sequence (looked up): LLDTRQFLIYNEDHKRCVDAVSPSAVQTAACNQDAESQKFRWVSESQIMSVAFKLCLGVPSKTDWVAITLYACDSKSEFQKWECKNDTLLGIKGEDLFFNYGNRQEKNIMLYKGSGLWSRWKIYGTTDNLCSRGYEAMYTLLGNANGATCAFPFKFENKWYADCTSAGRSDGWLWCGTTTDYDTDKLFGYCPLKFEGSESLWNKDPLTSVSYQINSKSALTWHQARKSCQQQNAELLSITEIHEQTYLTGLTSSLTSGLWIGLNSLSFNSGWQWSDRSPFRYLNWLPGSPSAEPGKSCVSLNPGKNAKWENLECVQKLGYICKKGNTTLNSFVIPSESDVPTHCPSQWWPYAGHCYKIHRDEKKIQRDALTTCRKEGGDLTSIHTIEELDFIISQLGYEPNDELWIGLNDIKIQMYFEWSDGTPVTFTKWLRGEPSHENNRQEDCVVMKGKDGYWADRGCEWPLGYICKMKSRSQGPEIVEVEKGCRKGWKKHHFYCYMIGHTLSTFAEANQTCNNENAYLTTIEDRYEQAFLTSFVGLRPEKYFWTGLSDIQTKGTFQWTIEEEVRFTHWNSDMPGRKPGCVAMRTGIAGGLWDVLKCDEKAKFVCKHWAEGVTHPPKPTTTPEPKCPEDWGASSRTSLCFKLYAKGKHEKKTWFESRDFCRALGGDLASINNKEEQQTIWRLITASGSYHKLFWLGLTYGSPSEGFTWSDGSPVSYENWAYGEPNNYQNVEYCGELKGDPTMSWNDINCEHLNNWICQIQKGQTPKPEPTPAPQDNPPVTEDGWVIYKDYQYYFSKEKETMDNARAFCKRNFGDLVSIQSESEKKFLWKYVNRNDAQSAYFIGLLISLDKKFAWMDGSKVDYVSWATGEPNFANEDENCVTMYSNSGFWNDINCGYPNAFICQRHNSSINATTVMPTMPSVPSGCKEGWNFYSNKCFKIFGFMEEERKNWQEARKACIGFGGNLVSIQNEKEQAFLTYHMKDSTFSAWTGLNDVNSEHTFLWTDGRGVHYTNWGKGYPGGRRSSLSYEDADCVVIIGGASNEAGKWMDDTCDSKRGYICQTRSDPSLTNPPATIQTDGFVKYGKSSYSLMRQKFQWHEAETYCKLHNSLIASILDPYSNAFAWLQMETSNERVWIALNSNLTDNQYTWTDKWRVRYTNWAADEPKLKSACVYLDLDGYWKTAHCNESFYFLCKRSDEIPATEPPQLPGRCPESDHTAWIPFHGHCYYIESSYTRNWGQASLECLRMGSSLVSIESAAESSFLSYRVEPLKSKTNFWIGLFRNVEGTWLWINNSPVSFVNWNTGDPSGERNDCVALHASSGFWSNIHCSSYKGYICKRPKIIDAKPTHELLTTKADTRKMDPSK

Chain of UniProt P06213 (P06213 28-1382): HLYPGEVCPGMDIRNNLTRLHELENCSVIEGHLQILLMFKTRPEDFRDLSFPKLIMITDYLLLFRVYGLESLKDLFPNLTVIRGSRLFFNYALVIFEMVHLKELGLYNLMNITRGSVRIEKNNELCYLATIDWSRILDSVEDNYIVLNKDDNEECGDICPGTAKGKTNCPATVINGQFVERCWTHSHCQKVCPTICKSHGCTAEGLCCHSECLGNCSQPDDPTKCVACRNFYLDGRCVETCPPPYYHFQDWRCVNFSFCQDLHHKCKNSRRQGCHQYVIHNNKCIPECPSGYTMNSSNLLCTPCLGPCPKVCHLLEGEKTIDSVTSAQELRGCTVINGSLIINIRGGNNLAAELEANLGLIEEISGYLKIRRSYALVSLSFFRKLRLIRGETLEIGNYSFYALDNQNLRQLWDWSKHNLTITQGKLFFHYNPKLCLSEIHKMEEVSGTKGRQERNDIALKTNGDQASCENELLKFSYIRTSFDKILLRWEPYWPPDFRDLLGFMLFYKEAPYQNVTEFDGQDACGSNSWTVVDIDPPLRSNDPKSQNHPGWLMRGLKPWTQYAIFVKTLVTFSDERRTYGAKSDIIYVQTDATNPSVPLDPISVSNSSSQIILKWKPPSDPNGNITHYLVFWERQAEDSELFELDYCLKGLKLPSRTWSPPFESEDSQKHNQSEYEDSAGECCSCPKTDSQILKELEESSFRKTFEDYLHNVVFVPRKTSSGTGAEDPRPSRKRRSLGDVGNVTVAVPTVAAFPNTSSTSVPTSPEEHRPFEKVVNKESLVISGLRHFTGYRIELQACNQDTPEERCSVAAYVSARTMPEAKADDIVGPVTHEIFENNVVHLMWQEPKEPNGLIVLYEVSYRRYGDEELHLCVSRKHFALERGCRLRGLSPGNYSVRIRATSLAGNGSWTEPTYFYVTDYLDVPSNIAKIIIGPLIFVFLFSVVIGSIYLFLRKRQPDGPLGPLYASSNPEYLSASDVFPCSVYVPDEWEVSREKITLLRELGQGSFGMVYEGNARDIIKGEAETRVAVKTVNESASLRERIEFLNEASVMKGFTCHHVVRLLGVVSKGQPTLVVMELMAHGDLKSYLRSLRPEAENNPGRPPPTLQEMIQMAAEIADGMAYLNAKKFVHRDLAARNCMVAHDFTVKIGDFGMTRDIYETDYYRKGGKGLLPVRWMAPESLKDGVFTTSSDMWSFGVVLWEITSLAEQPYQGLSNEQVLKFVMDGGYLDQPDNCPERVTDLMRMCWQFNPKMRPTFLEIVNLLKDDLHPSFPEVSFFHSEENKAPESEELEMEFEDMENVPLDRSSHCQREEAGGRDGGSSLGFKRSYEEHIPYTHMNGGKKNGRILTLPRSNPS

Human pIR IC50 (nM) [1]: 6.36 nM
IC50 [2]: 82.7 nM
Substance: IOC-34 (Lispro) (ligand)
